Test system: Micrococcus lysodeikticus cells
Assay: Lysozyme enzyme activity assay
Assay type: biochemical
Conditions: micropost tips 80% lysozyme and 20% PEO 200k versus uncompressed powder
Procedure: To measure the activity of lysozyme, the assay provided by Sigma Aldrich was used which measures the amount of lysed Micrococcus lysodeikticus cells. Briefly, a 200 unit/mL Lysozyme solution in 50 mM Potassium Phosphate Buffer was added to a 0.015% [w/v] Micrococcus lysodeikticus cell suspension in the same buffer. The decrease was recorded in A450 over 5 minutes. Nine micropost tips were fabricated from 80% lysozyme and 20% PEO 200k and dissolved sets of three micropost tips together. Triplicate assays were performed on each dissolved solution for a total of nine tests and the results were compared to the results of a solution made with lysozyme that was not compressed into a micropost tip.

Substance: lysozyme
- enzymatic activity after the manufacturing process: maintain their activity

Source: US12059562B2, “Systems for electrical stimulation” (priority 2018, dated 2024)
